According to publication PMC6441893:

Target: biotinylated histone H3 peptide acetylated at K14 (residues 1-21)
Test: BLI; biotinylated H3 or H3K14ac peptide (25 nM) immobilised on streptavidin sensors; BD proteins at 1 or 2 uM; 25 °C; 20 mM Tris pH 7.5, 300 mM NaCl, 1 mM TCEP, 1 uM ZnCl2, 10% glycerol, 0.5 mg/mL BSA; apparent Kd from a double exponential fit

| binding ratio, acetylated versus nonacetylated H3K14 peptide (H3:H3K14ac) | Substance |
| --- | --- |
| 1.7 | BD2 protein of PBRM1, GST removed (domain or fragment) |
| 1.5 | BD4 protein of PBRM1, GST removed (domain or fragment) |
| 6.8 | BD234 protein of PBRM1, GST removed (domain or fragment) |
| 12.3 | BD245 protein of PBRM1, GST removed (domain or fragment) |
